Test results taken from paper PMC10164562.

Key:
[1] = molecular target: BrxL(E280Q) (Acinetobacter sp. 394); assay: cryo-EM structure; BrxL(E280Q), high molecular weight SEC fractions with co-purified host DNA, no added ATP; C1 refinement
[2] = molecular target: wild-type BrxL (Acinetobacter sp. 394); assay: cryo-EM structure; wild-type BrxL, high molecular weight SEC fractions, ~0.8 mg/ml, no added ATP, no bound DNA; C7 symmetry

stoichiometry N [1]	stoichiometry N [2]	Substance
12		BrxL(E280Q) (natural protein)
	14	wild-type BrxL (natural protein)
